The supplement of paper PMC10567573

B1: ZBTB22 (parent)
chain: RPFDCPVCNKKFKMKHHLTEHMKT
B2: NP_006221.1 (parent)
chain: CQPISFSGFGAEDDDLGGLGLGP

Variants of: B1
Assay: protein stability index of a GFP-peptide fusion (GPS, HEK-293T) (PSI 1-6); higher = more stable
Details: c terminus: a fixed tail appended

Protein stability index, by site and new letter:
C8: R 3.08 | A 2.99 | H 3 | P 2.62 | D 3.25 | L 2.92 | Q 2.81 | T 3.48 | V 3.5 | M 2.93 | Y 2.9 | K 3.34 | S 3.03 | G 2.8 | F 2.26 | N 2.98 | I 2.72 | E 2.97 | W 2.42
P2: Y 2.6 | F 2.72 | D 3.24 | I 2.37 | Q 2.76 | N 2.34 | C 2.19 | R 2.12 | L 2.3 | G 2.46 | T 3.84 | A 2.83 | V 2.12 | M 2.46 | E 3.26 | H 2.97 | S 3.39 | W 2.52 | K 2.83
F12: C 4.09 | N 1.96 | M 2.78 | R 1.83 | E 3.22 | Y 2.4 | L 2.38 | D 2.22 | A 2.44 | T 2.64 | K 2.1 | G 2.65 | Q 2.6 | S 2.53 | H 2.6 | V 2.04 | I 2.49 | W 2.02 | P 2.5
P6: R 2.12 | M 2.03 | S 2.42 | H 2.27 | N 2.68 | Q 2.32 | T 2.45 | G 2.1 | E 2.85 | W 1.86 | F 2.15 | K 2.9 | Y 2.25 | A 2.65 | I 2.03 | V 2.37 | L 2.68 | D 3.46 | C 2.21
C5: Y 2.93 | N 3 | W 2.41 | E 3.76 | L 2.6 | R 3.21 | K 3.19 | A 2.51 | I 2.64 | P 3.23 | F 2.66 | S 3.15 | Q 2.94 | T 3.71 | V 2.61 | H 2.78 | M 2.9 | G 3.3 | D 3.21
K11: V 2.52 | L 2.25 | Q 2.31 | N 2.79 | F 1.8 | W 2.21 | C 2.44 | R 2.8 | E 2.89 | G 2.43 | I 2.36 | Y 2.17 | T 2.91 | S 3.12 | D 2.55 | H 2.85 | P 2.34 | A 2.23 | M 1.84
R1: W 2.09 | D 3.31 | A 3 | G 3.08 | Y 2.38 | N 2.64 | K 2.74 | S 2.71 | M 2.71 | V 2.74 | T 2.96 | Q 2.8 | H 2.88 | E 3.67 | F 2.38 | I 2.87 | P 3.17 | C 3.18 | L 2.35
K10: A 2.52 | T 2.96 | M 2.46 | P 2.31 | V 2.11 | R 2.37 | Q 2.21 | H 2.47 | Y 2.29 | I 2.03 | C 2.49 | L 2.19 | W 1.7 | D 2.43 | G 2.25 | N 2.45 | F 2.34 | E 3.01 | S 2.63
D4: S 3.5 | K 3.28 | E 3.6 | N 2.88 | V 3.54 | W 2.6 | Y 3.25 | Q 3.46 | A 3.31 | G 2.73 | C 3.54 | P 1.71 | I 3.62 | M 3.5 | L 2.92 | H 2.87 | R 3.1 | T 3.43 | F 2.95
V7: D 2.82 | Y 3 | C 3.91 | W 2.85 | H 3.27 | N 2.48 | G 3.06 | Q 2.45 | K 2.96 | M 2.25 | P 2.7 | S 2.77 | F 3.21 | T 2.47 | I 3.09 | E 3.58 | L 2.53 | A 2.21 | R 2.39
F3: G 2.49 | P 2.74 | H 2.56 | I 2.55 | Q 2.86 | R 1.98 | A 2.58 | V 2.85 | N 3.06 | D 2.93 | M 2.45 | Y 3.1 | S 2.58 | L 2.35 | T 3.09 | K 2.61 | C 2.98 | E 2.6 | W 2.57
K13: C 4.49 | D 3.45 | E 3.31 | F 2.33 | A 2.85
N9: K 3.23 | Q 2.33 | I 1.92 | D 3.13 | F 2.27 | V 2.06 | Y 2.07 | L 2.83 | M 2.54 | A 2.95 | E 3.36 | G 3.59 | C 2.43 | W 1.49 | T 2.27 | H 3.23 | S 2.43 | P 2.43 | R 2.03

Variants of: B2
Assay: as above
Details: c terminus: native

Protein stability index: each site, then its substitutions
P23: T 3.8 | C 3.17 | D 5.01 | V 3.45 | M 2.91 | R 2.95 | G 2.25
E12: F 2.17 | G 2.5
F6: M 3.53 | H 3.48 | Q 4.21
G20: H 2.93 | M 2.77 | P 3.11 | S 2.69 | N 3.93
S5: L 2.25 | M 2.46 | I 2.75 | D 2.69 | V 2.54 | N 2.4 | F 2.29 | G 2.36 | A 2.77
L16: W 2.25 | A 2.59
A11: E 2.02 | I 2.65 | W 2.06 | Q 2.32
G17: C 2.2 | Y 2.15 | M 1.7 | V 1.99 | I 1.93
S7: G 2.87 | N 3.37 | K 2.77 | I 2.13
G22: Y 2.59 | W 2.46 | L 2.46 | T 2.22 | A 2.29 | Q 2.27 | P 4.39 | V 2.11
G10: N 2.04 | H 1.99 | R 2.21
I4: R 2.08 | F 2.12 | E 2.41 | A 2.17 | P 2.2 | W 2.25
G8: Q 1.87 | N 2.24 | I 2.06
D14: S 2.05 | K 2.46 | Y 2.12 | V 2.12 | A 2.23
L21: C 3.02 | A 4.88 | H 4.76 | R 2.74 | D 5.19
D15: H 2.08 | S 2.38 | C 2.18 | Y 2.35 | A 2.28 | N 2.18 | R 2.13
C1: F 2.6 | V 2.27 | N 2.28
G18: T 2.23 | N 2.16 | P 1.99
Q2: H 2.26 | I 2.16
P3: R 2.06 | Q 2.42
D13: L 2.27 | E 2.22 | P 2.08 | N 2.2 | K 1.93
F9: K 2.4 | H 2.42 | L 2.23 | C 2.36 | V 2.25 | P 3.23 | W 2.53
L19: I 2.13
